According to patent US20190343962A1 (GENAGON THERAPEUTICS, published 2019):

T1: native CLPTM1 in membrane-permeabilised O-876 cells (Homo sapiens (Human), UniProt O96005 2-669)
T1 construct: The protein was stained inside permeabilised cells, not only at the surface; also called native target; 0-876 cells expressing native CLPTM1
T1 sequence: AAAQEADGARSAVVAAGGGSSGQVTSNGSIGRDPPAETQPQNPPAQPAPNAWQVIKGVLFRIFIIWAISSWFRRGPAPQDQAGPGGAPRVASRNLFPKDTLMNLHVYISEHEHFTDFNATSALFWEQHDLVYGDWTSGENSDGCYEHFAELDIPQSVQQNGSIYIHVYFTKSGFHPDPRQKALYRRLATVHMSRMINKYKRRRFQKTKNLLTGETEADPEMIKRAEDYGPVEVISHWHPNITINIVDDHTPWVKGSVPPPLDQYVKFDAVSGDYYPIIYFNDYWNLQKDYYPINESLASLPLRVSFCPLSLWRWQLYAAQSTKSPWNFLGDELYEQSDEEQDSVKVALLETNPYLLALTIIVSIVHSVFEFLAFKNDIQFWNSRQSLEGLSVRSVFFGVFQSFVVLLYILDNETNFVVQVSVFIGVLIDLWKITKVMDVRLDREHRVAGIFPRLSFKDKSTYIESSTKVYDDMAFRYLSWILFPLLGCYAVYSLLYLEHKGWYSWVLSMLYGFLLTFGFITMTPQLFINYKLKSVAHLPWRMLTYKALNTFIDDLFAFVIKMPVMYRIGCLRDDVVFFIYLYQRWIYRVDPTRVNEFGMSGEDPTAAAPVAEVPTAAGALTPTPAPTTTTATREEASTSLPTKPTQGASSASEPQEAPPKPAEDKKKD


How the values were obtained:
[1] = target: native CLPTM1 in membrane-permeabilised O-876 cells (Homo sapiens (Human)) (UniProt O96005); test: flow cytometry on permeabilised O-876 cells; half-maximal binding
[2] = target: native CLPTM1 in membrane-permeabilised O-876 cells (Homo sapiens (Human)) (UniProt O96005); test: flow cytometry on permeabilised O-876 cells, 10x dilution series; half-maximal binding
[3] = target: T1, native CLPTM1 in membrane-permeabilised …; test: flow cytometry on permeabilised O-876 cells, antibody dilution series, PE-labelled secondary antibody
Description: (§1) Affinity of antibodies was determined by finding the half-maximal binding on the native target in a flow cytometry assay. Since the native target is found inside most cells and rarely on the cell surface, the assay was performed using plasma membrane-permeabilised cells, an intra-cellular staining protocol. Using the native target is more applicable when evaluating and comparing various antibodies as it is the true antigen to be bound in a therapeutic setting in vivo. 0-876 cells were permeabilised with BD-fix and permeabilisation buffer (554722 BD-Biosciences). Antibody at various concentrations was incubated with cells for 30 minutes at +4° C., then washed twice with wash buffer (BD-Biosciences 554723). Secondary antibodies a-mouse IgG-PE (Molecular Probes) was used for mouse monoclonal antibodies according to manufacturer's instructions and a-rabbit-IgG-PE (Molecular Probes) for rabbit monoclonal antibody (Abcam ERP8800). Three washes followed and fluorescence intensity in cells was quantified by FACS CantoII in PBS with cells in 2% FCS buffer.
(§2) The assay was performed on O-876 cancer cell line.

[4] = target: T1, native CLPTM1 in membrane-permeabilised …; test: flow cytometry on permeabilised O-876 cells, 10x dilution series; half-maximal binding
Description: CLPTM1 binding in permeabilised 0-876 cells expressing native CLPTM1 was measured in a 10× dilution series. […] The AbCam antibody also retained greater than 50% of its maximum binding at 0.1 μg/ml. The 59D04 antibody retained greater than 50% of its maximum binding at 1 μg/ml, whilst the Santa Cruz antibody had less than 50% of its maximum binding at this level.
as §1, with “Secondary antibodies a-mouse IgG-PE (Molecular Probes) was used for mouse monoclonal antibodies according to manufacturer's instructions and a-rabbit-IgG-PE (Molecular Probes) for rabbit monoclonal antibody (Abcam ERP8800).” left out

[5] = target: T1, native CLPTM1 in membrane-permeabilised …; test: flow cytometry on permeabilised O-876 cells; half-maximal binding
Description: as §1, §2

| Molecule | EC50 [1] [mg/L] | EC50 [2] [mg/L] | Kd [3] [nM] | EC50 [4] [mg/L] | EC50 [5] [mg/L] |
| --- | --- | --- | --- | --- | --- |
| rabbit monoclonal anti-CLPTM1 antibody EPR8800 (RabMab, Abcam) | < 1 | < 0.1 |  |  |  |
| anti-CLPTM1 mouse monoclonal antibody 7G12 (antibody, IgG1, V domains shown, Mouse monoclonal, IgG1 heavy chain, kappa light chain; The printed VL ends in 'TKL.' and may be incomplete; also called CLPTM1 clone 7G12 (IgG1)) VH: QVQLQQSGTELVRPGTSVKVSCKASGYAFTNYLIEWVKQRPGQGLEWIGVINPGSGGTRYNEKFKGKATLTADKSSTTAHMQLSSLTSDDSAVYCARWGGNYSGYAMDYWGQGTSVTVSS VL: QIVLTQSPVIMSASPGEKVTITCSASSSVSYMHWFQQKPGTSPKLWIYSTSNLASGVPARFSGSGSGTSYSLTISRMEAEDAATYYCQQRSSYPPTFGAGTKL |  |  | < 1 | < 0.1 | < 1 |
| anti-CLPTM1 antibody 59D04 (format in the assay not stated) (antibody, V domains shown, Fully human antibody derived by phage display) VH: EVQLVESGGGVVQPGRSLRLSCAASGFTFSTYAMHWVRQAPGKGLEWVAVISYDGTNKYYADSVKGRFTIFRDNSKNTLYLQMNSLRAEDTAVYYCGSGSYWGQGTLVTVSS VL: QPVLTQPASVSGSPGQSITISCTGTSSDVGGYNYVSWYQQHPGKAPKLMIYEVTNRPSGVSDRFSGSKSGNTASLTISGLQAEDEADYYCSSYKSSNTVVFGGGTKVTVL |  |  |  | < 1 |  |
